# Data from patent US20150344570A1 (published 2015).
# T1: FcγRIIa R (FcγRIIa, allotype with Arg at position 131), extracellular domain with C-terminal His tag (human, UniProt P12318 34-217)
# T1 construct: extracellular domain; also called FcγRIIa R type; 2aR
# T1 sequence (looked up): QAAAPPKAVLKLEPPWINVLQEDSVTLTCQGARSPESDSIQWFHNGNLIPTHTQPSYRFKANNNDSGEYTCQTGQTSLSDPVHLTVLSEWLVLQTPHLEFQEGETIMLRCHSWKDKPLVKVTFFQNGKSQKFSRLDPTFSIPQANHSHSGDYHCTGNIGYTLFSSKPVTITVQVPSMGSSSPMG
# B1: GpH7-B3 variant I336_03V/GpL16-k0 (antibody, human IgG1, kappa)
# heavy: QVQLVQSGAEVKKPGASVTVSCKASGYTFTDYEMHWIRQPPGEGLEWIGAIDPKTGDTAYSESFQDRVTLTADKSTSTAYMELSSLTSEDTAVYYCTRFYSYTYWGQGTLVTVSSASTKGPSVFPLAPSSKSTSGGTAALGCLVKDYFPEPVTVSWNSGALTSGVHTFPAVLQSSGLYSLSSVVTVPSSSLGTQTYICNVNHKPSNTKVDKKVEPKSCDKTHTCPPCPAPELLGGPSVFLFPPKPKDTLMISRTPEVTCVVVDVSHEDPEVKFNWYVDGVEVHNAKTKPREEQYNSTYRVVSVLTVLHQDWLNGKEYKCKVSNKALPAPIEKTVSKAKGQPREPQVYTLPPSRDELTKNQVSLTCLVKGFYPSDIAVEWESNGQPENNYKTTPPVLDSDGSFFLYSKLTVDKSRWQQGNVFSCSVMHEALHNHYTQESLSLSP
# light: DIVMTQSPLSLPVTPGEPASISCQASESLVHSNRNTYLHWYLQKPGQSPQLLIYKVSNRFSGVPDRFSGSGSGTDFTLKISRVEAEDVGVYYCSQNTHVPPTFGQGTKVEIERTVAAPSVFIFPPSDEQLKSGTASVVCLLNNFYPREAKVQWKVDNALQSGNSQESVTEQDSKDSTYSLSSTLTLSKADYEKHKVYACEVTHQGLSSPVTKSFNRGEC
# notes: also called Ho Ab I336_03V
# B2: GpH7-B3 variant E333_16H/GpL16-k0 (antibody, human IgG1, kappa)
# heavy: not shown
# light: B1 light
# notes: also called Ho Ab E333_16H
# B3: GpH7-B3 variant A330_20W/GpL16-k0 (antibody, human IgG1, kappa)
# heavy: not shown
# light: B1 light
# notes: also called Ho Ab A330_20W
# B4: GpH7-B3 variant K326_14T/GpL16-k0 (antibody, human IgG1, kappa)
# heavy: not shown
# light: B1 light
# notes: also called Ho Ab K326_14T
# B5: GpH7-B3 variant I332_10E/GpL16-k0 (antibody, human IgG1, kappa)
# heavy: not shown
# light: B1 light
# notes: also called Ho Ab I332_10E
# B6: GpH7-B3 variant K334_04F/GpL16-k0 (antibody, human IgG1, kappa)
# heavy: not shown
# light: B1 light
# notes: also called Ho Ab K334_04F
# B7: GpH7-B3 variant H268_13S/GpL16-k0 (antibody, human IgG1, kappa)
# heavy: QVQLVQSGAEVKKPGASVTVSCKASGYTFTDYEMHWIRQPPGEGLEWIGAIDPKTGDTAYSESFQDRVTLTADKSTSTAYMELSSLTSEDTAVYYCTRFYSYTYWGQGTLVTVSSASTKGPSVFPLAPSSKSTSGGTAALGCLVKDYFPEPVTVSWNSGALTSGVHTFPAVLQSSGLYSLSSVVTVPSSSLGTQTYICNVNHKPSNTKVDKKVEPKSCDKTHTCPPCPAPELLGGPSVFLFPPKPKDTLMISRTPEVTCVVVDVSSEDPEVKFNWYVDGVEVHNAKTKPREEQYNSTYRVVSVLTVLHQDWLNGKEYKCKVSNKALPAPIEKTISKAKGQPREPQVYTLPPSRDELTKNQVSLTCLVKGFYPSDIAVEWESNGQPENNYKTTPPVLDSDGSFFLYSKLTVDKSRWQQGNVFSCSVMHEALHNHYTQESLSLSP
# light: B1 light
# notes: also called Ho Ab H268_13S
# B8: GpH7-B3 variant K326_06M/GpL16-k0 (antibody, human IgG1, kappa)
# heavy: not shown
# light: B1 light
# notes: also called Ho Ab K326_06M
# B9: GpH7-A5/GpH7-B3 variant Y296_16H/GpL16-k0 (antibody, human IgG1, kappa)
# heavy 1: not shown
# heavy 2: not shown
# light: B1 light
# notes: also called He Ab
# B10: GpH7-A5/GpH7-B3 variant Y296_14T/GpL16-k0 (antibody, human IgG1, kappa)
# heavy 1: not shown
# heavy 2: not shown
# light: B1 light
# notes: also called He Ab
# B11: GpH7-B3 variant K326_07I/GpL16-k0 (antibody, human IgG1, kappa)
# heavy: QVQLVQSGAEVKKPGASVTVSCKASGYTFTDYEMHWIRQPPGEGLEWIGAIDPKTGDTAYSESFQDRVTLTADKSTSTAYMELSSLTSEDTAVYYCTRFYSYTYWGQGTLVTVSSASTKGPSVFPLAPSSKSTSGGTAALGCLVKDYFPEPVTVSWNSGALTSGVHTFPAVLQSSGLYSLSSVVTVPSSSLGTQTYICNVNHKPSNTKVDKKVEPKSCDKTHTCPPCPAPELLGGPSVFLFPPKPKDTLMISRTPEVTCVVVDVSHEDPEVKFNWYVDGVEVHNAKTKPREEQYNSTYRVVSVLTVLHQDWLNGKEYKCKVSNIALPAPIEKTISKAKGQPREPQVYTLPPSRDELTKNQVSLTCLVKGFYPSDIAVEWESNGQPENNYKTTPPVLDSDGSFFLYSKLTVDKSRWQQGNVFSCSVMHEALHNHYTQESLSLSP
# light: B1 light
# notes: also called Ho Ab K326_07I
# B12: GpH7-B3 variant K326_03V/GpL16-k0 (antibody, human IgG1, kappa)
# heavy: not shown
# light: B1 light
# notes: also called Ho Ab K326_03V
# B13: GpH7-B3 variant I336_06M/GpL16-k0 (antibody, human IgG1, kappa)
# heavy: not shown
# light: B1 light
# notes: also called Ho Ab I336_06M
# B14: GpH7-B3 variant K326_04F/GpL16-k0 (antibody, human IgG1, kappa)
# heavy: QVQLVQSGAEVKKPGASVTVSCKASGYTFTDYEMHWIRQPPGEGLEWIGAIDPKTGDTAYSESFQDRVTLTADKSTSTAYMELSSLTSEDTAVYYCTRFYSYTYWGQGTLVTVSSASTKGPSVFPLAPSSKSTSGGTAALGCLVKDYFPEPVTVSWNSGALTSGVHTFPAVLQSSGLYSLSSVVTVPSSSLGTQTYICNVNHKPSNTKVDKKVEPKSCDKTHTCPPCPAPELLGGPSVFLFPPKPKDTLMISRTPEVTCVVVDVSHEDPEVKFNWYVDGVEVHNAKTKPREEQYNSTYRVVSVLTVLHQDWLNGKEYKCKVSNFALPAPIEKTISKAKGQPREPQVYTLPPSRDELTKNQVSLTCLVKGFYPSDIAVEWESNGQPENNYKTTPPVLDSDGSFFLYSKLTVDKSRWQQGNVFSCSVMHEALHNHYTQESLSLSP
# light: B1 light
# notes: also called Ho Ab K326_04F
# B15: GpH7-B3 variant K326_19Q/GpL16-k0 (antibody, human IgG1, kappa)
# heavy: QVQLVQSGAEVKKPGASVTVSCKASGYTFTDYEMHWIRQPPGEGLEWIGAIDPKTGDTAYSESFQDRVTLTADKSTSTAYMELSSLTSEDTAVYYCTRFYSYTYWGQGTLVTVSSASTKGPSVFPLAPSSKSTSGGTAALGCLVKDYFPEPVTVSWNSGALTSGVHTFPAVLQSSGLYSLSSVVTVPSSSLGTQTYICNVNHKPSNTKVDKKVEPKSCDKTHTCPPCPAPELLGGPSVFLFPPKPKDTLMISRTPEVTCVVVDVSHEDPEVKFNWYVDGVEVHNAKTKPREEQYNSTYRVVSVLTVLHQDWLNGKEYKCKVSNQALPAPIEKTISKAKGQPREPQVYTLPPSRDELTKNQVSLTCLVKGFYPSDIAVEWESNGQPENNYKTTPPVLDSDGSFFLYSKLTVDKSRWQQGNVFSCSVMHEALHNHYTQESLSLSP
# light: B1 light
# notes: also called Ho Ab K326_19Q
# B16: GpH7-A5/GpH7-B3 variant Y300_18N/GpL16-k0 (antibody, human IgG1, kappa)
# heavy 1: not shown
# heavy 2: not shown
# light: B1 light
# notes: also called He Ab
# B17: GpH7-B3 variant K334_09D/GpL16-k0 (antibody, human IgG1, kappa)
# heavy: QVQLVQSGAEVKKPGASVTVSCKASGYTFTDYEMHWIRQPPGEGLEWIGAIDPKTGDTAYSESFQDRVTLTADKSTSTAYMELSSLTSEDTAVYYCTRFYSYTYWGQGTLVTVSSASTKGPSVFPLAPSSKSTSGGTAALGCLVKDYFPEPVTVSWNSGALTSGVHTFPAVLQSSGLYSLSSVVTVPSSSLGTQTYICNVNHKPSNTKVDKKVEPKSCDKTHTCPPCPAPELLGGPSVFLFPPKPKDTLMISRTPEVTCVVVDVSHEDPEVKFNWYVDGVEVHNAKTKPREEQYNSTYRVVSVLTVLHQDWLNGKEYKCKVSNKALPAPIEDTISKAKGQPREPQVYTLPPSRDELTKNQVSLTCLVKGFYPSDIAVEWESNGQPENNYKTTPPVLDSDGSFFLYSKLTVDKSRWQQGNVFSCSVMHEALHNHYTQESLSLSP
# light: B1 light
# notes: also called Ho Ab K334_09D
# B18: GpH7-A5/GpH7-B3 variant Y296_18N/GpL16-k0 (antibody, human IgG1, kappa)
# heavy 1: not shown
# heavy 2: not shown
# light: B1 light
# notes: also called He Ab
# B19: GpH7-B3 variant A330_08L/GpL16-k0 (antibody, human IgG1, kappa)
# heavy: not shown
# light: B1 light
# notes: also called Ho Ab A330_08L
# B20: GpH7-B3 variant K326_08L/GpL16-k0 (antibody, human IgG1, kappa)
# heavy: not shown
# light: B1 light
# notes: also called Ho Ab K326_08L
# B21: GpH7-B3 variant I332_02A/GpL16-k0 (antibody, human IgG1, kappa)
# heavy: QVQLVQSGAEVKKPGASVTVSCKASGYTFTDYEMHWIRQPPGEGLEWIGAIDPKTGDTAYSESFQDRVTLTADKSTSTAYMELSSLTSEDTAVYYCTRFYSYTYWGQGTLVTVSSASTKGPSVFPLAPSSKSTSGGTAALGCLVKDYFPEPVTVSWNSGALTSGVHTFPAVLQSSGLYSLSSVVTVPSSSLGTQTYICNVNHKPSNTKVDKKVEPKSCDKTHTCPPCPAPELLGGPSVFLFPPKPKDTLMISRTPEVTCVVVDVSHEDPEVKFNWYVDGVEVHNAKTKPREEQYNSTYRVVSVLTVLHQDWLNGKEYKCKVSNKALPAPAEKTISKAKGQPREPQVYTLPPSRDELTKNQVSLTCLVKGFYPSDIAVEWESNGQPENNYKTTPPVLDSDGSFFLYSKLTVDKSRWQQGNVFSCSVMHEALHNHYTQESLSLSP
# light: B1 light
# notes: also called Ho Ab I332_02A
# B22: GpH7-B3 variant I336_10E/GpL16-k0 (antibody, human IgG1, kappa)
# heavy: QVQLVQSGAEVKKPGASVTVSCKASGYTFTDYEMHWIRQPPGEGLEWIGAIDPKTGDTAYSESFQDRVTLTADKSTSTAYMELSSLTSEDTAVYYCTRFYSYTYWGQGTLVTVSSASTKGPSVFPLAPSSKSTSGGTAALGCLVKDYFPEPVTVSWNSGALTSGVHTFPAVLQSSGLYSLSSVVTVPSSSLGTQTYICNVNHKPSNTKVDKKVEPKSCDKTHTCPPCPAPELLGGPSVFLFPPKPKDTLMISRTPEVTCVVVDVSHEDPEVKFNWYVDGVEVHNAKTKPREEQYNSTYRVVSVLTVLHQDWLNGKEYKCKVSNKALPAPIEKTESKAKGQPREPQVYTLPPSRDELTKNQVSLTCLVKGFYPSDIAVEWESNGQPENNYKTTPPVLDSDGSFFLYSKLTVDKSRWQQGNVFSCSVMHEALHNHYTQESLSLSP
# light: B1 light
# notes: also called Ho Ab I336_10E
# B23: GpH7-B3 variant I332_19Q/GpL16-k0 (antibody, human IgG1, kappa)
# heavy: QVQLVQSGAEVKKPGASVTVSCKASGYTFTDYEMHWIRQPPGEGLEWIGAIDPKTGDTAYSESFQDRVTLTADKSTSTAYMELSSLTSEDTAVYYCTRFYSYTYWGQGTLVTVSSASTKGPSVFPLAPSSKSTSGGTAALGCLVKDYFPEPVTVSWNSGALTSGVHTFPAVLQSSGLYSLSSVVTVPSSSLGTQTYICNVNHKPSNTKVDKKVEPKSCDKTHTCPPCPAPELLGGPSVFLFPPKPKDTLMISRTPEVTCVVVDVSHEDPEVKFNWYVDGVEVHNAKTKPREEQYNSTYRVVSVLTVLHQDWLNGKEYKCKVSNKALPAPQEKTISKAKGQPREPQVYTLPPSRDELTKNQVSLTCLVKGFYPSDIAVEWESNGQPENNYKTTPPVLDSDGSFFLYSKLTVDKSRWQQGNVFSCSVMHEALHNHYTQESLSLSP
# light: B1 light
# notes: also called Ho Ab I332_19Q
# B24: GpH7-B3 variant K326_15Y/GpL16-k0 (antibody, human IgG1, kappa)
# heavy: not shown
# light: B1 light
# notes: also called Ho Ab K326_15Y
# B25: GpH7-B3 variant I336_14T/GpL16-k0 (antibody, human IgG1, kappa)
# heavy: not shown
# light: B1 light
# notes: also called Ho Ab I336_14T
# B26: GpH7-B3 variant I336_02A/GpL16-k0 (antibody, human IgG1, kappa)
# heavy: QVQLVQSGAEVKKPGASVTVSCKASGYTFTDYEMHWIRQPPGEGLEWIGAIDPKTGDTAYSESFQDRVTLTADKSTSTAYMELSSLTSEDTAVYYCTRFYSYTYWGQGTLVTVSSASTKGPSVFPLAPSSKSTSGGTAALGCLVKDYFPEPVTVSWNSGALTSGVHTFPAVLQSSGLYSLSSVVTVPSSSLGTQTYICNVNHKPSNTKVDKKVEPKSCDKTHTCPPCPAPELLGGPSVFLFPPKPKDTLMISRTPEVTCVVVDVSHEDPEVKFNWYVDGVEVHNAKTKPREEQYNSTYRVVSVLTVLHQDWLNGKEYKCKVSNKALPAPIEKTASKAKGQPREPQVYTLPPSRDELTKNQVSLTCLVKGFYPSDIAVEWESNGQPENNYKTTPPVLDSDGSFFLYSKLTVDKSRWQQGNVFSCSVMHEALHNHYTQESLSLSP
# light: B1 light
# notes: also called Ho Ab I336_02A
# B27: GpH7-B3 variant I332_15Y/GpL16-k0 (antibody, human IgG1, kappa)
# heavy: not shown
# light: B1 light
# notes: also called Ho Ab I332_15Y
# How the values were obtained:
# [1] = molecular target: T2, FcγRIIIa extracellular domain with C-terminal His tag (human, UniProt P08637 17-208); test: SPR Biacore, captured antibody, FcγR analyte, relative binding
# T2 construct: extracellular domain; also called FcgRIIIa; 3a; not shown: His tag attached to the C terminus
# T2 sequence (P08637 17-208): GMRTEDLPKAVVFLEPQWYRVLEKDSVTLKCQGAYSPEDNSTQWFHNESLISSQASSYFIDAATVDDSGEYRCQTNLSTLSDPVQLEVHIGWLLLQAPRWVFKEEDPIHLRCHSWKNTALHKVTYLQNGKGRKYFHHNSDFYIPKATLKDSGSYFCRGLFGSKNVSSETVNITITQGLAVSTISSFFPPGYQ
# Protocol: Analysis of interaction between objective antibody and the FcγR was carried out using Biacore T100 (GE Healthcare). HBS-EP+ (GE Healthcare) was used as the running buffer, and the measurement temperature was set to 25° C. Chips produced by immobilizing the antigen peptide by the amine coupling method to a Series S Sencor Chip CM5 (GE Healthcare), or alternatively, chips produced by allowing preliminarily biotinylated antigen peptides to interact with and immobilize onto a Series S Sensor Chip SA (certified) (GE Healthcare) were used. Antibodies of interest were captured onto an antigen peptide-immobilized chip, and allowed to interact to each FcγR diluted with running buffer. To regenerate and repeatedly use the chip, the antibodies captured on the chip were washed off by reacting 10 mM glycine-HCl, pH 1.5.
# [2] = molecular target: T1, FcγRIIa R (FcγRIIa, allotype with Arg …); test: SPR (Biacore), antibody captured on antigen peptide chip, FcγR as analyte; relative binding
Binder,Ho/Con_3a [1],He/Con_2aR [2]
B1,110 % of HoCon Ab GpH7-B3/GpL16-k0 (=100),–
B2,111 % of HoCon Ab GpH7-B3/GpL16-k0 (=100),–
B3,118 % of HoCon Ab GpH7-B3/GpL16-k0 (=100),–
B4,147 % of HoCon Ab GpH7-B3/GpL16-k0 (=100),–
B5,278 % of HoCon Ab GpH7-B3/GpL16-k0 (=100),–
B6,168 % of HoCon Ab GpH7-B3/GpL16-k0 (=100),–
B7,130 % of HoCon Ab GpH7-B3/GpL16-k0 (=100),–
B8,129 % of HoCon Ab GpH7-B3/GpL16-k0 (=100),–
B9,–,105 % of GpH7-A5/GpH7-B3/GpL16-k0 (=100)
B10,–,103 % of GpH7-A5/GpH7-B3/GpL16-k0 (=100)
B11,134 % of HoCon Ab GpH7-B3/GpL16-k0 (=100),–
B12,137 % of HoCon Ab GpH7-B3/GpL16-k0 (=100),–
B13,107 % of HoCon Ab GpH7-B3/GpL16-k0 (=100),–
B14,103 % of HoCon Ab GpH7-B3/GpL16-k0 (=100),–
B15,118 % of HoCon Ab GpH7-B3/GpL16-k0 (=100),–
B16,–,100 % of GpH7-A5/GpH7-B3/GpL16-k0 (=100)
B17,150 % of HoCon Ab GpH7-B3/GpL16-k0 (=100),–
B18,–,104 % of GpH7-A5/GpH7-B3/GpL16-k0 (=100)
B19,138 % of HoCon Ab GpH7-B3/GpL16-k0 (=100),–
B20,114 % of HoCon Ab GpH7-B3/GpL16-k0 (=100),–
B21,114 % of HoCon Ab GpH7-B3/GpL16-k0 (=100),–
B22,130 % of HoCon Ab GpH7-B3/GpL16-k0 (=100),–
B23,118 % of HoCon Ab GpH7-B3/GpL16-k0 (=100),–
B24,115 % of HoCon Ab GpH7-B3/GpL16-k0 (=100),–
B25,123 % of HoCon Ab GpH7-B3/GpL16-k0 (=100),–
B26,104 % of HoCon Ab GpH7-B3/GpL16-k0 (=100),–
B27,106 % of HoCon Ab GpH7-B3/GpL16-k0 (=100),–
